The target in test [1] is T1, PTHR1 on CHO-K1/Ga15/PTHR1 cells (UniProt Q03431 27-593, limits assumed).
T1 sequence (looked up): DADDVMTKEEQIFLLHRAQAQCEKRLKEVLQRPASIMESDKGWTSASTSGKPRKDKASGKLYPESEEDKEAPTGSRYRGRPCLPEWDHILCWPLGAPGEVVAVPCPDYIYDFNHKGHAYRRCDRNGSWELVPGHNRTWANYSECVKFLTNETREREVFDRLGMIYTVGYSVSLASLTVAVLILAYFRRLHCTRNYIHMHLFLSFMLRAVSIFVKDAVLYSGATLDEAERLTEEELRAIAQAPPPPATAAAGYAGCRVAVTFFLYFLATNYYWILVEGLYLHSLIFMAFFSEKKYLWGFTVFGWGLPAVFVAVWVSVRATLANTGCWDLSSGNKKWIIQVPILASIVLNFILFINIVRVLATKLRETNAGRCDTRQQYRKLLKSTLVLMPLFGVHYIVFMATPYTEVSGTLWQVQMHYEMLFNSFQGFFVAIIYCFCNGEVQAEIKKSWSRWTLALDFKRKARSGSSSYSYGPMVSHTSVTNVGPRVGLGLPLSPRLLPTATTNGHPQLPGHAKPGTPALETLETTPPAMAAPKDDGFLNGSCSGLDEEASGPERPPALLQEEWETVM
Put plainly: cell-based or functional assay.

Test [2] has as its target T2, Flag-PTHR1-YFP (parathyroid hormone receptor 1) expressed in transfected HEK293T cells (human, UniProt Q03431 27-593).
T2 sequence (looked up): T1 sequence (looked up)
The test can be described thus: cell-based or functional assay.

For the molecule GVAMLQILHDKAKVRAEYELREMLLRLLEEIF [R2-11], in test [1], the “cAMP accumulation (HTRF): -log10EC50” value is -5.7 -log10EC50 (as headed) and the “cAMP accumulation (HTRF): Emax” value amounted to 60.8%.

With SVMMIQVMHDLAKIRAEYELREMLLRLLEEIF [R2-8], in test [1], the “cAMP accumulation (HTRF): -log10EC50” value is -7.5 -log10EC50 (as headed) and the “cAMP accumulation (HTRF): Emax” value stood at 19.9%.

Regarding AVAEIQLMHQRAKWELLEELLKILLELLKEYI [R2-38], in test [2], the “arrestin 1, plate 21: -log10EC50” value is -10.7 -log10EC50; the “arrestin 1, plate 21: Emax” value was 6.36; the “arrestin 2, plate 22: -log10EC50” value is -14 -log10EC50; the “arrestin 2, plate 22: Emax” value amounted to 6.45.

Take AVAEIQLMHQRAKWKLDLELAVSLRKILEDVY [R2-27]: in test [1], the “cAMP accumulation (HTRF): -log10EC50” value is -7.91 -log10EC50 (as headed) and the “cAMP accumulation (HTRF): Emax” value is 93.3%.

Regarding AVAEIQLMHQRAKWDLLIELVKLLHELLKEYI [R2-40], in test [2], the “arrestin 1, plate 11: -log10EC50” value is -6.24 -log10EC50; the “arrestin 1, plate 11: Emax” value stood at 14.7; the “arrestin 1, plate 21: -log10EC50” value is -5.44 -log10EC50; the “arrestin 1, plate 21: Emax” value is 11.4. In test [2], the “arrestin 2, plate 22: -log10EC50” value was -6.07 -log10EC50 and the “arrestin 2, plate 22: Emax” value is 20.9.

Consider AVATIQLMTDIAKIRAEYELREMLLRLLEEIF [R2-6], for which, in test [1], the “cAMP accumulation (HTRF): -log10EC50” value was 3.88 -log10EC50 (as headed) and the “cAMP accumulation (HTRF): Emax” value is 294%.

With GVAMLQIMHDLAKIKQELELKDSMKKILEDVL [R2-50], in test [2], the “arrestin 1, plate 15: -log10EC50” value was -5.92 -log10EC50; the “arrestin 1, plate 15: Emax” value turned out to be 32.9; the “arrestin 1, plate 25: -log10EC50” value is -13.8 -log10EC50; the “arrestin 1, plate 25: Emax” value was 6.47. Besides, in test [2], the “arrestin 2, plate 26: -log10EC50” value is -13.9 -log10EC50 and the “arrestin 2, plate 26: Emax” value stood at 6.62.

Turning to GIAVITIMIDYAKLRAEYELREMLLRLLEEIF [R2-22], in test [1], the “cAMP accumulation (HTRF): -log10EC50” value was -10.1 -log10EC50 (as headed) and the “cAMP accumulation (HTRF): Emax” value stood at 17.6%.

As for PIPVKDIMDLRAYLRAEYELREMLLRLLEEIF [R2-19], in test [1], the “cAMP accumulation (HTRF): -log10EC50” value is -4.69 -log10EC50 (as headed) and the “cAMP accumulation (HTRF): Emax” value was determined as 324%.

On to LILVKKIIDLRAYLRAEYELREMLLRLLEEIF [R2-21], for which, in test [1], the “cAMP accumulation (HTRF): -log10EC50” value is -4.67 -log10EC50 (as headed) and the “cAMP accumulation (HTRF): Emax” value came out at 47%.

As to GLAALTIGLLRAKLRAEYELREMLLRLLEEIF [R2-24], in test [1], the “cAMP accumulation (HTRF): -log10EC50” value is -10.4 -log10EC50 (as headed) and the “cAMP accumulation (HTRF): Emax” value was 81.4%.

Consider AVAEIQLMHQRAKWKLELELKVKLLEILKDVY [R2-25], for which, in test [1], the “cAMP accumulation (HTRF): -log10EC50” value is -7.89 -log10EC50 (as headed) and the “cAMP accumulation (HTRF): Emax” value stood at 96%.

With GVAELQLMHDLAKIRAEYELREMLLRLLEEIF [R2-1, listing 1 of 2 here], in test [2], the “arrestin 1, plate 7: -log10EC50” value is -15 -log10EC50; the “arrestin 1, plate 7: Emax” value stood at 6.35; the “arrestin 2, plate 8: -log10EC50” value is -9.21 -log10EC50; the “arrestin 2, plate 8: Emax” value came out at 6.41.

As for GVSMLQIMHDLAVIRAEYELREMLLRLLEEIF [R2-4], in test [1], the “cAMP accumulation (HTRF): -log10EC50” value is -5.87 -log10EC50 (as headed) and the “cAMP accumulation (HTRF): Emax” value came out at 10.6%.

As to GVAEIQLMVDLDIIRAEYELREMLLRLLEEIF [R2-12], in test [1], the “cAMP accumulation (HTRF): -log10EC50” value is -3.86 -log10EC50 (as headed) and the “cAMP accumulation (HTRF): Emax” value worked out at 154%.

On to GVALLQIVHDFAKIRAEYELREMLLRLLEEIF [R2-5], for which the “cAMP accumulation (HTRF): Emax” value in test [1] is 1580%.

Take GVAELQLMHDLAKIRAEYELREMLLRLLEEIF [R2-1, listing 2 of 2 here]: in test [1], the “cAMP accumulation (HTRF): -log10EC50” value was -7.02 -log10EC50 (as headed) and the “cAMP accumulation (HTRF): Emax” value is 102%.

On to GVAEIQLMHDIPVIRAEYELREMLLRLLEEIF [R2-3], for which, in test [1], the “cAMP accumulation (HTRF): -log10EC50” value is -4.93 -log10EC50 (as headed) and the “cAMP accumulation (HTRF): Emax” value stood at 260%.

In the case of GVAELQLMHFRALLRAEYELREMLLRLLEEIF [R2-7], in test [1], the “cAMP accumulation (HTRF): -log10EC50” value is -1.58 -log10EC50 (as headed) and the “cAMP accumulation (HTRF): Emax” value was 823%.

Turning to GVAMIQIMHDIAKIRAEYELREMLLRLLEEIF [R2-2], in test [1], the “cAMP accumulation (HTRF): -log10EC50” value was -6.73 -log10EC50 (as headed) and the “cAMP accumulation (HTRF): Emax” value was 101%.

As for GVVMLQFMHDVAKIRAEYELREMLLRLLEEIF [R2-9], in test [1], the “cAMP accumulation (HTRF): -log10EC50” value is 110 -log10EC50 (as headed) and the “cAMP accumulation (HTRF): Emax” value turned out to be 665%.

As for GVYAIQAMHDLAKIRAEYELREMLLRLLEEIF [R2-10], in test [1], the “cAMP accumulation (HTRF): -log10EC50” value is -4.49 -log10EC50 (as headed) and the “cAMP accumulation (HTRF): Emax” value worked out at 1680%.

On to GIAVITLMVLRALLELQEIGRKITLELLKEYI [R2-51], for which, in test [2], the “arrestin 1, plate 25: -log10EC50” value was -4.53 -log10EC50; the “arrestin 1, plate 25: Emax” value was 12.5; the “arrestin 2, plate 26: -log10EC50” value was -13.8 -log10EC50; the “arrestin 2, plate 26: Emax” value came to 6.47.

Consider GIAVITLMLLRAYLELLEELVKILHELLRRYH [R2-52], for which, in test [2], the “arrestin 1, plate 25: -log10EC50” value is -9.83 -log10EC50; the “arrestin 1, plate 25: Emax” value was 6.37; the “arrestin 2, plate 26: Emax” value was determined as 6.48.

AVAEIQLMHQRAKWGLELELKEKLRKILEDVY [R2-26]: in test [1], the “cAMP accumulation (HTRF): -log10EC50” value is -7.07 -log10EC50 (as headed) and the “cAMP accumulation (HTRF): Emax” value came out at 96.8%.

AVAEIQLMHQRAKWEIQEIGIKITLDLLQTLK [R2-41]: in test [2], the “arrestin 1, plate 21: -log10EC50” value was -8.42 -log10EC50; the “arrestin 1, plate 21: Emax” value came out at 6.44; the “arrestin 2, plate 22: -log10EC50” value was -6.03 -log10EC50; the “arrestin 2, plate 22: Emax” value was 23.7.

Regarding AVAEIQLMHQRAKWGLDLELAVKLQEILKDVL [R2-28], in test [1], the “cAMP accumulation (HTRF): -log10EC50” value was -7.03 -log10EC50 (as headed) and the “cAMP accumulation (HTRF): Emax” value stood at 99.2%.

As to AVAEIQLMHQRAKWKILEELLKILIDLLKQYI [R2-48], in test [2], the “arrestin 1, plate 13: -log10EC50” value is -5.72 -log10EC50; the “arrestin 1, plate 13: Emax” value came to 15.1; the “arrestin 1, plate 23: -log10EC50” value is -15.4 -log10EC50; the “arrestin 1, plate 23: Emax” value was 6.53. Moreover, in test [2], the “arrestin 2, plate 24: -log10EC50” value is -10.7 -log10EC50 and the “arrestin 2, plate 24: Emax” value is 6.67.

With GIAVITLMDLRAYLRAEYELREMLLRLLEEIF [R2-13, listing 1 of 2 here], in test [2], the “arrestin 1, plate 15: -log10EC50” value is -8.79 -log10EC50; the “arrestin 1, plate 15: Emax” value stood at 6.38; the “arrestin 2, plate 16: -log10EC50” value is -14 -log10EC50; the “arrestin 2, plate 16: Emax” value came to 6.59.

For LILVEQLMDLRAYLRAEYELREMLLRLLEEIF [R2-16], in test [1], the “cAMP accumulation (HTRF): -log10EC50” value is -4.71 -log10EC50 (as headed) and the “cAMP accumulation (HTRF): Emax” value came out at 48.7%.

Regarding GIAVFTIMHLRIYLRAEYELREMLLRLLEEIF [R2-17], in test [1], the “cAMP accumulation (HTRF): -log10EC50” value is -3.35 -log10EC50 (as headed) and the “cAMP accumulation (HTRF): Emax” value is 39.7%.

As to GIAVITLMDLRAYLRAEYELREMLLRLLEEIF [R2-13, listing 2 of 2 here], in test [1], the “cAMP accumulation (HTRF): -log10EC50” value is -5.31 -log10EC50 (as headed) and the “cAMP accumulation (HTRF): Emax” value stood at 116%.

Take GIAVLTILDLRAKLRAEYELREMLLRLLEEIF [R2-14]: in test [1], the “cAMP accumulation (HTRF): -log10EC50” value is -11.3 -log10EC50 (as headed) and the “cAMP accumulation (HTRF): Emax” value came out at 117%.

As to SIIGEQLMLLRALLRAEYELREMLLRLLEEIF [R2-18], in test [1], the “cAMP accumulation (HTRF): -log10EC50” value was -2.23 -log10EC50 (as headed) and the “cAMP accumulation (HTRF): Emax” value was determined as 36.6%.
